# Laboratory results as given in patent US6835382B2, “Ii peptide therapeutics to enhance antigen presentation” (University of Massachusetts, priority 1996, dated 2004).
# Legend:
# [1] = target: T1, murine A^d MHC class II allele (Mus musculus, UniProt P01921+P04228); test: simultaneous assay, A^d allele (A20 APC, 9.30.B2 T hybridoma, HEL11-25); type: cell-based; conditions: Table 2; for Times Baseline Response, A^d: AE peptide 64 μM, 0.05 μM HEL11-25, supernatant 1:2
# T1 construct: The A20 and CH27 B cell lymphoma lines express H-2^d and H-2^k alleles, respectively; endogenous in cells; host or cells: A20 B cell lymphoma (mitomycin C-treated)
# T1 sequence (P04228 24-256): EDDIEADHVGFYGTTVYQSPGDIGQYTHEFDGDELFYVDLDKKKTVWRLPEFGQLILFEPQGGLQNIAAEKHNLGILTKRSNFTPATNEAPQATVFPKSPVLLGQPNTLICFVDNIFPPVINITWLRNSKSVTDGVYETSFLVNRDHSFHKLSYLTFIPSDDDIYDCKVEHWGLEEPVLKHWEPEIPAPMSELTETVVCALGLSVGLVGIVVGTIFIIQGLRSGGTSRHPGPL
# T1 sequence (P01921 28-265): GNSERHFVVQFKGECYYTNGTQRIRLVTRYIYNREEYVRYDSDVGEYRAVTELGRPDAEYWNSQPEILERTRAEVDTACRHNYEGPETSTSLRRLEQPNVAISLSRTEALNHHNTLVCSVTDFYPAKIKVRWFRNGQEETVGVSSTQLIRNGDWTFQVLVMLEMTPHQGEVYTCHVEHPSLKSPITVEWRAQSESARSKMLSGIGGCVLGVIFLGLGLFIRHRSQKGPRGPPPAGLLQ
# Procedure: (§1) In the “simultaneous assay” the four components of the assay are cultured together for a 24 h period. The components of this primary culture, added at the same time or simultaneously, are: (a) the antigenic peptide, (b) mitomycin C-treated, MHC class II-positive antigen presenting cells (APC) with the MHC class II allele required for binding of the specific antigenic peptide and its presentation to the antigenic peptide-specific T cell hybridoma, (c) an AE101 series effector peptide, and (d) MHC class II allele-restricted T cell hybridoma specific for the antigenic peptide and the MHC class II allele restricting its presentation. At the end of the incubation of this primary culture, an aliquot of its supernatant is transferred into a second culture well for incubation with an interleukin-dependent lymphoblastoid cell line. The degree of stimulation of that second, indicator cell by the interleukins which had been released from the activated T cell hybridoma in the primary culture is measured by quantitating tritiated thymidine deoxyribose {[^3H]TdR} uptake into the DNA of the HT-2 indicator cells of that second culture.
# (§2) For these various assays, the following antigenic peptides were used: HEL11-25, hen egg lysozyme 11-25, AMKRHGLDNYRGYSL(A^d) (SEQ ID NO:5); HEL46-61, hen egg lysozyme 46-61, NTDGSTDYGILQINSR(Ak) (SEQ ID NO:6); HEL106-116, hen egg lysozyme 106-116, NAWVAWRNRCK (E^d) (SEQ ID NO:7); PGCC81-104, pigeon cytochrome c 81-104, […] (Ek) (SEQ ID NO:8), and THMCC82-103, tobacco hornworm moth cytochrome c 82-103, […] (Ek) (SEQ ID NO:9). AE101 series peptides were obtained from commercial sources. In general, the purity and composition of each peptide was confirmed by HPLC separation and mass spectrometry. The native protein antigens were HEL, hen egg lysozyme, and PGCC, pigeon cytochrome C. They were obtained from commercial sources.
# (§3) For the experiments of these Examples, several T cell hybridomas, which are specific for certain antigenic peptides, were used. The TPc9.1 T hybridoma is specific for pigeon cytochrome C 81-104 peptide presented on the murine class II MHC allele E^k. The TPc9.1 hybridoma responds heteroclitically to tobacco hornworm moth cytochrome c 82-103 on E^k. The 3A9 T hybridoma is specific for hen egg lysozyme 46-61 on A^k. The 9.30.B2 hybridoma is specific for hen egg lysozyme 11-25 on A^d, and the G28.C9 hybridoma is specific for hen egg lysozyme 106-116 on E^d. The A20 and CH27 B cell lymphoma lines express H-2^d and H-2^k alleles, respectively.
# (§4) Antigenic peptide-specific T cell activation was measured by the following procedure. Mitomycin C-treated A20 cells (A^dE^d) or CH27 cells APC (A^kE^k) were generated by incubating 5×10^6 cells/mL for 20 min at 37° C. with 0.025 mg/mL of mitomycin C (Sigma) in Dulbecco's Modified Eaglel's Medium (DMEM)/10 mM N-2(hydroxyethylpiperazine-N″[2-ethanesulfonic acid] (HEPES), followed by two washes with four volumes of DMEM-5% fetal calf serum (FCS), 10 mM HEPES. Fixed APC were generated by treating 1×10^6 cells/mL for 5 min with 0.5% paraformaldehyde in PBS (pH 7.2), followed by two washes with four volumes of DMEM-10% FCS, 10 mM HEPES. T cell hybridomas were irradiated 2200 rads before each assay.
# (§5) For the “simultaneous assay”, 5×10^4 mitomycin C-treated APC, 5×10^4 T hybridoma cells and a submaximal concentration of antigenic peptide were cultured with and without serial 4-fold dilutions of each AE101 series peptide, usually at 64 μM, 16 μM, 4 μM, and 1 μM, at pH 7.2-7.4, in complete DMEM-5% FCS, 10 mM HEPES, 1×nonessential amino acids (Sigma), 1 mM sodium pyruvate, 2 mM L-glutamine, 100 U/mL penicillin G, 100 μg/mL streptomycin sulfate, 5×10^−5 M 2-mercaptoethanol (2-ME). Wells containing only T hybridoma cells (T)+APC were included to monitor for background T cell activation; and wells containing T+APC+AE101 series peptide were included to monitor for non-specific T hybridoma activation by each AE101 series peptide. […]
# [2] = target: T2, murine A^k MHC class II allele (Mus musculus, UniProt P01910+P06343); test: simultaneous assay, A^k allele (CH27 APC, 3A9 T hybridoma, HEL46-61); type: cell-based; conditions: Table 2; for Times Baseline Response, A^k: AE peptide 64 μM, 0.05 μM HEL46-61, supernatant 1:2; for activity in simultaneous assay in the A^k system, in words: 64 μM
# T2 construct: The A20 and CH27 B cell lymphoma lines express H-2^d and H-2^k alleles, respectively; endogenous in cells; host or cells: CH27 B cell lymphoma (mitomycin C-treated)
# Procedure: as §1, §2, §3, §4, §5
# T2 sequence (P01910 24-256): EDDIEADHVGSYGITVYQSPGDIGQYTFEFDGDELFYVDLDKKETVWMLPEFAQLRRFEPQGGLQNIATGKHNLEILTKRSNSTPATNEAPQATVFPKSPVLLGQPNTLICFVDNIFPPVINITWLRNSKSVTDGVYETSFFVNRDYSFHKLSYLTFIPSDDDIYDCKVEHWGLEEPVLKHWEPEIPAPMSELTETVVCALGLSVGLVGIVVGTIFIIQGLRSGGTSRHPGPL
# T2 sequence (P06343 28-263): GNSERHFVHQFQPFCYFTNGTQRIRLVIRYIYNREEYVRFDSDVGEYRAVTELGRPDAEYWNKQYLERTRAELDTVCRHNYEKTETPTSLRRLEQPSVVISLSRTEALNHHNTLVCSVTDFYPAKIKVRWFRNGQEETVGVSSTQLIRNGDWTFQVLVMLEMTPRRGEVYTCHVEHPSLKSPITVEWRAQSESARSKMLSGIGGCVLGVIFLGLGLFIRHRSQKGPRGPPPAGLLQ
Substance,"activity in simultaneous assay in the A^k system, in words [2]","activity in simultaneous assay in the A^d system, in words ([1]; 64 μM)","Times Baseline Response, A^d [1]","Times Baseline Response, A^k [2]"
Ac-DSLRMKLPKSAK-NH2 [AE154],–,–,1.1,1.0
Ac-LDSLRMKLPKSAK-NH2 [AE153],–,–,1.2,1.0
Ac-NLQLDSLRMKLPKSAK-NH2 [AE150],inhibitory,–,1.0,0.0
Ac-SLRMKLPKSAK-NH2 [AE155],–,–,0.8,1.0
Ac-YRMKLPKSAK-NH2 [AE109],–,–,0.9,1.2

# Further lines, with some results ahead:
"activity in simultaneous assay in the A^k system, in words [2]","activity in simultaneous assay in the A^d system, in words ([1]; 64 μM)",Substance,"Times Baseline Response, A^d [1]","Times Baseline Response, A^k [2]"
inhibitory,–,Ac-LQLDSLRMKLPKSAK-NH2 [AE151],1.1,0.5
inactive,not active,Ac-LRMKLPKSAK-NH2 [AE110],0.7,0.8
inhibitory,–,Ac-QLDSLRMKLPKSAK-NH2 [AE152],0.9,0.5
